Test [1] concerns Human umbilical vein endothelial cells (HUVEC). Put plainly: Tube formation assay (endothelial differentiation), vectors and Suramin. It counts as cell-based. As to conditions: vectors 10,000 vp/cell; Suramin 50 μM; Matrigel. How it is done:
Human umbilical vein endothelial cells (HUVECs; Clonetics) were seeded on 1% gelatin-coated plates and incubated at 37° C. for 24 hours. […] Cells exposed to medium alone served as negative controls while cells exposed to Suramin (50 μM) served as positive controls. After a 48-hour incubation period (37° C. in serum-containing medium), infected cells were harvested, counted, and added to Matrigel-coated 24-well plates in triplicate (1.2×10^5 cells per well). Twenty-four hours later, cells were fixed with 10% buffered formalin and examined for differentiation (tube formation) by using an Olympus IX-70 inverted bright-field microscope at 4× and 10× magnification. cl Example 1
Tube Formation Assay. Human umbilical vein endothelial cells (HUVECs; Clonetics) were seeded on 1% gelatin-coated plates and incubated at 37° C. for 24 hours. After incubation, cells were infected for 1 hour with Ad-luc or Ad-mda 7 at 10,000 vp/cell in serum-free medium. Cells exposed to medium alone served as negative controls while cells exposed to Suramin (50 μM) served as positive controls. After a 48-hour incubation period (37° C. in serum-containing medium), infected cells were harvested, counted, and added to Matrigel-coated 24-well plates in triplicate (1.2×10^5 cells per well). […]

For test [2], the system named is MCF-7. Put plainly: Ad-mda7 growth inhibition, 3H-thymidine incorporation assay. The format is cell-based, human. As to conditions: MCF-7 cells; four days after treatment; tamoxifen 1 ng/ml. How it is done:
(§1) Cells were either plated at 500-2000 cells/well in 96-well format for Tritiated thymidine incoporation-Cell Proliferation Assay or plated at 10^5-10^6 cells/well in a 6 well plate for protein expression or Apoptosis assays or plated at 10^4 cells/well for Alamar-blue assay. […]
(§2) Growth inhibition of cells after treatment is measured by analysis of DNA-synthesis. Briefly, for the ^3H-thymidine incorporation assay cells will be plated at 200-5000 cell per well in a 96-well format and grown in DMEM/10% FBS in a 5% CO2 incubator at 37° C. overnight. The next day the media is aspirated and replace with […] DMEM/10% FBS containing the appropriate adenovirus at the appropriate MOI. Cells will be incubated with infecting media for 1 to 4 hrs and then diluted to […] total volume and grown overnight. Media is replaced with DMEM/10% FBS/mCi ^3H-thymidine and grown for 16 to 18 hrs. Stock solution of 100 uCi/mL of H3-thymidine (Amersham) is prepared by dilution into high glucose DMEM (GIBCO). ^3H-Thymidine was added to each well at a final concentration of 1 μCi/mL. The reaction is stopped 15 hours later by removal of the supernatant from recipient cells. […] The filter were dried and analyzed in Matrix 9600 (Packard) and cell proliferation using Viral Particles/cell against Tritiated Thymidine uptake counts were plotted.
For orientation: Uptake of a labelled nucleoside into DNA is a usual measure of proliferation.

Test [3] has as its system T47D. The description is as above. The format is cell-based, human. As to conditions: T47D cells; four days after treatment. How it is done: as §1, §2
In test [4] the test system is HUVEC cells. As to the kind of experiment: Tube formation with purified MDA-7 protein. It counts as cell-based, human. How it is done:
HUVEC cells were administered increasing amounts of MDA-7 protein purified from 293-mda7 cells. Doses that were evaluated ranged from 0.5-100 ng/ml. The ED50 of MDA-7 ranged from 5-50 ng/ml. Endothelial differentiation in the cells was inhibited by MDA-7 protein, but not control cells, based on tube formation.
HUVEC cells were given varying doses of MDA-7 protein purified from 293-mda7 cells (lots 1-6) or from baculovirus exoressing mda-7. A positive control of Ad-mda7 and a negative control of Ad-luc were included in most assays.

Test [5] deals with PBMC. Put plainly: PBMC proliferation (thymidine uptake). The format is cell-based, human. As to conditions: 4 days of coculture; three donors. From the text:
Some cytokines can also function as growth factors. Therefore the proliferative simulation function of MDA-7 was addressed using PBMC. IL-10 was included as a negative cytokine control.

Test [6] deals with PBMC. Put plainly: Secondary cytokine secretion from PBMC (ELISA). It counts as cell-based, human. How it is done: FIG. 24. Effect of MDA-7 and IL-10 on inflammatory cytokine secretion from PBMC. Two ml/well (2×10^6 cells/ml) PBMC were plated in a 24 well plate and cultured untreated or with indicated amounts of MDA-7 (B 2 ng/ml; D,F 20 ng/ml), 5 μg/ml LPS, 5 μg/ml PHA, 500 U/ml IL-10 (˜17 ng/ml; R & D Systems, Minneapolis, Minn.) or combination of IL-10 and MDA-7. Supernatants were harvested at 48 hours and analyzed for cytokine content by ELISA (Endogen, Corp) according to manufacturer's instructions. Data from one representative donor are reported. * Indicates values above standard curve.
FIG. 25. […] Human PBMC were treated with 5 μg/ml LPS, 500 U/ml IL-10, 5 ng/ml MDA-7 or combinations for 48 hours. An equal volume of an S column fraction not containing MDA-7 as determined by Western (an MDA-7 Neg Fraction) was used as a control for buffer/salt content. Supernatants were harvested at 48 hours and analyzed for cytokine content by ELISA (Endogen, Corp) according to manufacturer's instructions. Data from one representative donor are reported. * Indicates value greater than 500 pg/ml IL-1β. ** Actual values are 539 pg/ml IL-12 and 893 pg/ml GM-CSF. Data from one representative donor are reported.
Activation of PBMC: PBMC were isolated from the peripheral blood of normal healthy donors by centrifugation over Histopaque (Sigma, St. Louis, Mo.). Cells were cultured at a concentration of 1×10^6 cells/ml in RPMI-1640 based media supplemented with L-glutamine, Hepes, penicillin, streptomycin, and 10% human AB serum (Pelfreez, Brown Deer, Wis.) for 72 hr in the presence of PHA-P at 5 μg/ml or LPS 10 μg/ml (both from Sigma, St. Louis, Mo.). Four hours prior to harvest Brefeldin A (BFA, Sigma-Aldrich) was added at a final concentration of 10 μg/ml. The supernatants as well as cells were then harvested.
ELISA assays. The ELISA reaction to detect human MDA-7 was carried out in 96-well plates using standard techniques and an antibody pair selected for sentivity. Elisa assays for cytokines were perfomed in an identical manner, employing commercially available kits as designated in the figure legends.

Take `Cc1ccc(C(=O)Nc2ccc(S(=O)(=O)O)c3cc(S(=O)(=O)O)cc(S(=O)(=O)O)c23)cc1NC(=O)c1cccc(NC(=O)Nc2cccc(C(=O)Nc3cc(C(=O)Nc4ccc(S(=O)(=O)O)c5cc(S(=O)(=O)O)cc(S(=O)(=O)O)c45)ccc3C)c2)c1` [Suramin]: in test [1], the endothelial tube formation result was “known inhibitor of tube formation”.
`CC/C(=C(\c1ccccc1)c1ccc(OCCN(C)C)cc1)c1ccccc1` [tamoxifen]: the “DNA replication (tritiated thymidine assay)” value is on record as “little effect” in test [2] and “minimal effect” in test [3].

B1: MDA-7: human MDA-7 protein secreted by and purified from stably transfected 293 cells (293-mda7) (protein)
chain: QEFHFGPCQVKGVVPQKLWEAFWAVKDTMQAQDNITSARLLQQEVLQNVSDAESCYLVHTLLEFYLKTVFKNYHNRTVEVRTLKSFSTLANNFVLIVSQLQPSQENEMFSIRDSAHRRFLLFRRAFKQLDVEAALTKALGEVDILLTWMQKFYKL
Take B1: the “lowest doses inhibiting tube formation” value in test [4] (MDA-7 protein from 293-mda7 cells (lots 1-6) or baculovirus) lay within 0.5 to 10 ng/mL. Moreover, the “ED50 (inhibition of endothelial differentiation, tube formation)” value in test [4] (MDA-7 protein purified from 293-mda7 cells, doses 0.5-100 ng/ml) fell in the range of 5 to 50 ng/mL. Also, in test [5], the “proliferation (thymidine uptake)” value is “did not induce significant proliferation”. In addition, the IL-6 secretion result in test [6] (2 ng/ml of MDA-7, above the standard curve of the ELISA kit) is given as “greater than 800 pg/ml”. For the same molecule, the “IL-1β, IL-12 and GM-CSF secretion” value in test [6] (5 ng/ml MDA-7, 48 hours) was “induces IL-1β, IL-12 and GM-CSF secretion”. In test [6] (48 hours, ELISA), the “MDA-7 concentration stimulating maximal IL-6 secretion” value stood at 200 pg/mL; the “dose required to achieve optimal levels of TNFα and IFNγ secretion” value turned out to be 2 ng/mL. Moreover, the “induction of TNFα compared with LPS” value in test [6] (LPS 5 μg/ml positive control) was “more potent inducer than the positive stimulation control LPS”.

Values taken from US20020183271A1, “Methods of treatment involving human MDA-7” (priority 2000, published 2002).
